Assay results reported in US20180086841A1.

Key:
[1] = target: Macaca mulatta CD27 (mmCD27) (Macaca mulatta (rhesus) / Macaca fascicularis (cynomolgus)); test: flow cytometry MFI, CD4+ T cells in rhesus peripheral blood, n=4
human CD27 (human) [2] = target: human CD27 (human) (UniProt P26842); test: flow cytometry MFI, CD8+ T cells in human peripheral blood, n=4
D43A = test: flow cytometry on CHO-K1 transfectants, right sub-column
I46A = test: as above
Q91A = test: as above
human CD27 (human) [3] = target: human CD27 (human) (UniProt P26842); test: flow cytometry MFI, CD4+ T cells in human peripheral blood, n=4
human CD27 (human) [4] = target: human CD27 (human) (UniProt P26842); test: competition cell ELISA on CHO-hCD27; competitor detected: mouse hCD27.15 at 1 µg/ml
[5] = target: Macaca mulatta CD27 (mmCD27) (Macaca mulatta (rhesus) / Macaca fascicularis (cynomolgus)); test: flow cytometry MFI, CD8+ T cells in rhesus peripheral blood, n=4
human CD27 (human) [6] = target: human CD27 (human) (UniProt P26842); test: cell ELISA on CD27-transfected CHOK1 cells, n=2
[7] = target: human CD27 (A59T) (human) (UniProt P26842); test: cell ELISA on CD27-transfected CHOK1 cells, n=2
[8] = target: Macaca mulatta CD27 (mmCD27) (Macaca mulatta (rhesus) / Macaca fascicularis (cynomolgus)); test: cell ELISA on CD27-transfected CHOK1 cells, n=2

1F5-hIgG1 (antibody), sequence (VH): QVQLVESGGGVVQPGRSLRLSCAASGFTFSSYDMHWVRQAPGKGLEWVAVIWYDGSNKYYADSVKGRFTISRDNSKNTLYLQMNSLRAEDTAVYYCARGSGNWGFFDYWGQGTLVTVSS
1F5-hIgG1 (antibody), sequence (VL): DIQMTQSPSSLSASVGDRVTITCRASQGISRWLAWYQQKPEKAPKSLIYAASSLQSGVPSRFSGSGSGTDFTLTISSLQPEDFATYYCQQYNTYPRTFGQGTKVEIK
I46A, sequence (receptor chain, as listed by the source I46A I46A limits assumed): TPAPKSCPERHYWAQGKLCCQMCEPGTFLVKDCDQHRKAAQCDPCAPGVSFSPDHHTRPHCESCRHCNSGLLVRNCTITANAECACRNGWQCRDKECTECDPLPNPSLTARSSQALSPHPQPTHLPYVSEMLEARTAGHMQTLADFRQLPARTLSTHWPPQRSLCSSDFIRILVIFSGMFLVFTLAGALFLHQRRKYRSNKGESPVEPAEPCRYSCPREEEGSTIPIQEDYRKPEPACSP
D43A, sequence (receptor chain, as listed by the source D43A D43A limits assumed): as the sequence (receptor chain, as listed by the source I46A I46A limits assumed) above, with D43A, A46I counted along it
Q91A, sequence (receptor chain, as listed by the source Q91A Q91A limits assumed): as the sequence (receptor chain, as listed by the source I46A I46A limits assumed) above, with A46I, Q91A counted along it

EC50 [1]: 1.58 nM
EC50 (human CD27 (human) [2]): 1.3 nM
binding, WT hCD27 = 100 (GM FITC) (D43A): 86.1%
binding, WT hCD27 = 100 (GM FITC) (I46A): 69.7%
binding, WT hCD27 = 100 (GM FITC) (Q91A): 115%
EC50 (human CD27 (human) [3]): 1.54 nM
IC50 (read off the curve) (human CD27 (human) [4]): 4 nM
EC50 [5]: 1.92 nM
EC50 (human CD27 (human) [6]): 0.325 nM
EC50 [7]: 0.326 nM
EC50 [8]: 0.193 nM
Substance: 1F5-hIgG1 (antibody)
